Experimental data from patent US20190330359A1.

Molecular target: TNFR2 (human TNFR2, SEQ ID NO: 1) (human) (UniProt P20333)
Assay: surface plasmon resonance (Pioneer SensiQ)

Chain of UniProt P20333 (P20333 23-257 limits assumed): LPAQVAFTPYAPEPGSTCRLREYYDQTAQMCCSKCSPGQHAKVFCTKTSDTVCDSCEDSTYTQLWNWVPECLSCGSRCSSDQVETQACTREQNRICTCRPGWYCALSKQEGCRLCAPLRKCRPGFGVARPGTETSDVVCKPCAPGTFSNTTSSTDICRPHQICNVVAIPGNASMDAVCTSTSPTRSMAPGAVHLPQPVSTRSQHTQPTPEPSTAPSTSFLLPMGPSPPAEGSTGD

Substance: Clone MAB726 (R&D Systems, Inc.) anti-TNFR2 antagonist monoclonal antibody
- Kd: 0.621 nM
